Measured values taken from article PMC5686756, “IKKγ-Mimetic Peptides Block the Resistance to Apoptosis Associated with Kaposi's Sarcoma-Associated Herpesvirus Infection” (Journal of Virology, 2017).

Target: ks-vFLIP (purified, thermofluor assay) (Kaposi's sarcoma-associated herpesvirus (KSHV)) (UniProt Q76RF1)
Assay: thermofluor (thermal shift); 30 μM ks-vFLIP combined with IKKγ or mimetic peptides, SYPRO orange 1:1,000, 96-well plate, thermal denaturation

unmodified IKKγ 30-mer peptide (residues 224 to 253), sequence (Q9Y6K9 224-253): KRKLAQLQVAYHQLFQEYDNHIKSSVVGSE
IKKγ fragment encompassing residues 150 to 272, sequence (Q9Y6K9 150-272): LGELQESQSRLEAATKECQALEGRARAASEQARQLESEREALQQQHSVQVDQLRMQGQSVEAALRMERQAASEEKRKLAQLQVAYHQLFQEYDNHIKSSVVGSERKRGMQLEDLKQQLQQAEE

For “IKKγ fragment encompassing residues 150 to 272 (from UniProt Q9Y6K9 150-272) (domain or fragment)”, the shift in melting temperature at 30 μM was 8 °C.
“unmodified IKKγ 21-mer peptide (residues 226 to 248) (from UniProt Q9Y6K9 226-248)” was tested, and the shift in melting temperature at 100 μM was 4 °C.
“unmodified IKKγ 30-mer peptide (residues 224 to 253) (from UniProt Q9Y6K9 224-253)” was tested, and the shift in melting temperature at 100 μM was 4 °C.
